Reference: the RNAGym collection of RNA variant scans (doi:10.1093/molbev/msab373)

B1: Azoarcus group I ribozyme (parent)
chain: GUGCCUUGCGCCGGGAAACCACGCAAGGGAUGGUGUCAAAUUCGGCGAAACCUAAGCGCCCGCCCGGGCGUAUGGCAACGCCGAGCCAAGCUUCGGCGCCUGCGCCGAUGAAGGUGUAGAGACUAGACGGCACCCACCUAAGGCAAACGCUAUGGUGAAGGCAUAGUCCAGGGAGUGGCGAAAGUCACACAAACCGG

Variants of: B1
Test: reverse-splicing fitness (ratio to wild type); higher = more active; in vitro selection; Mg2+ level not given
How it was run: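 An in vitro group I ribozyme library with randomized positions was T7-transcribed and gel-purified. In triplicate, 10 pmol RNA in EPPS pH 7.5 was reacted with 50 pmoles of a 30-nt RNA substrate for 1 h at 37 °C across several added MgCl2 levels (1–48 mM), then stopped with EDTA. Products were reverse transcribed from a substrate-complementary primer, PCR-amplified and sequenced (HiSeq 4000). Fitness is a variant's read proportion after selection over that before, normalised to wild type.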

Variant	reverse-splicing fitness
C82U A120U C169U U176G	0.00164
C82U A120U U176A	0.0428
C82U A120U U176C	0.0796
C82U A120U U176G	0.0137
C82U A145C	0.598
C82U A145C C150A	0.0351
C82U A145C C150A C169A	0.00751
C82U A145C C150A C169A U176A	0.0088
C82U A145C C150A C169A U176C	0.00505
C82U A145C C150A C169A U176G	0.0047
C82U A145C C150A C169G	0.00677
C82U A145C C150A C169G U176A	0.0178
C82U A145C C150A C169G U176C	0.00995
C82U A145C C150A C169G U176G	0.00485
C82U A145C C150A C169U	0.00854
C82U A145C C150A C169U U176A	0.0103
C82U A145C C150A C169U U176C	0.00693
C82U A145C C150A C169U U176G	0.00503
C82U A145C C150A U176A	0.031
C82U A145C C150A U176C	0.0348
C82U A145C C150A U176G	0.0119
C82U A145C C150G	0.0813
C82U A145C C150G C169A	0.00743
C82U A145C C150G C169A U176A	0.00717

Variant	reverse-splicing fitness
C82U A145C C150G C169A U176C	0.00546
C82U A145C C150G C169A U176G	0.0049
C82U A145C C150G C169G	0.00699
C82U A145C C150G C169G U176A	0.00879
C82U A145C C150G C169G U176C	0.00649
C82U A145C C150G C169G U176G	0.00454
C82U A145C C150G C169U	0.00824
C82U A145C C150G C169U U176A	0.00881
C82U A145C C150G C169U U176C	0.00785
C82U A145C C150G C169U U176G	0.00486
C82U A145C C150G U176A	0.0431
C82U A145C C150G U176C	0.0583
C82U A145C C150G U176G	0.00905
C82U A145C C150U	0.172
C82U A145C C150U C169A	0.00695
C82U A145C C150U C169A U176A	0.00827
C82U A145C C150U C169A U176C	0.00467
C82U A145C C150U C169A U176G	0.00518
C82U A145C C150U C169G	0.00634
C82U A145C C150U C169G U176A	0.0158
C82U A145C C150U C169G U176C	0.00881
C82U A145C C150U C169G U176G	0.0047
C82U A145C C150U C169U	0.00874
C82U A145C C150U C169U U176A	0.0121

Variant	reverse-splicing fitness
C82U A145C C150U C169U U176C	0.00673
C82U A145C C150U C169U U176G	0.00478
C82U A145C C150U U176A	0.114
C82U A145C C150U U176C	0.127
C82U A145C C150U U176G	0.0408
C82U A145C C169A	0.00714
C82U A145C C169A U176A	0.00806
C82U A145C C169A U176C	0.00633
C82U A145C C169A U176G	0.00383
C82U A145C C169G	0.00966
C82U A145C C169G U176A	0.0179
C82U A145C C169G U176C	0.00995
C82U A145C C169G U176G	0.00428
C82U A145C C169U	0.0123
C82U A145C C169U U176A	0.0118
C82U A145C C169U U176C	0.00956
C82U A145C C169U U176G	0.00457
C82U A145C U176A	0.38
C82U A145C U176C	0.449
C82U A145C U176G	0.141
C82U A145G	0.63
C82U A145G C150A	0.103
C82U A145G C150A C169A	0.0109
C82U A145G C150A C169A U176A	0.0196

Variant	reverse-splicing fitness
C82U A145G C150A C169A U176C	0.0216
C82U A145G C150A C169A U176G	0.00596
C82U A145G C150A C169G	0.00784
C82U A145G C150A C169G U176A	0.0162
C82U A145G C150A C169G U176C	0.0265
C82U A145G C150A C169G U176G	0.0053
C82U A145G C150A C169U	0.0093
C82U A145G C150A C169U U176A	0.0137
C82U A145G C150A C169U U176C	0.0152
C82U A145G C150A C169U U176G	0.00508
C82U A145G C150A U176A	0.0793
C82U A145G C150A U176C	0.0964
C82U A145G C150A U176G	0.0228
C82U A145G C150G	0.0812
C82U A145G C150G C169A	0.00942
C82U A145G C150G C169A U176A	0.0146
C82U A145G C150G C169A U176C	0.0125
C82U A145G C150G C169A U176G	0.00764
C82U A145G C150G C169G	0.00814
C82U A145G C150G C169G U176A	0.01
C82U A145G C150G C169G U176C	0.0124
C82U A145G C150G C169G U176G	0.00548
C82U A145G C150G C169U	0.00979
C82U A145G C150G C169U U176A	0.0125

Variant	reverse-splicing fitness
C82U A145G C150G C169U U176C	0.0132
C82U A145G C150G C169U U176G	0.00689
C82U A145G C150G U176A	0.0372
C82U A145G C150G U176C	0.0584
C82U A145G C150G U176G	0.0108
C82U A145G C150U	0.527
C82U A145G C150U C169A	0.0113
C82U A145G C150U C169A U176A	0.0158
C82U A145G C150U C169A U176C	0.0136
C82U A145G C150U C169A U176G	0.00522
C82U A145G C150U C169G	0.0102
C82U A145G C150U C169G U176A	0.0129
C82U A145G C150U C169G U176C	0.0172
C82U A145G C150U C169G U176G	0.00503
C82U A145G C150U C169U	0.0153
C82U A145G C150U C169U U176A	0.0142
C82U A145G C150U C169U U176C	0.0134
C82U A145G C150U C169U U176G	0.00493
C82U A145G C150U U176A	0.315
C82U A145G C150U U176C	0.372
C82U A145G C150U U176G	0.0868
C82U A145G C169A	0.00962
C82U A145G C169A U176A	0.0178
C82U A145G C169A U176C	0.0258

Variant	reverse-splicing fitness
C82U A145G C169A U176G	0.00411
C82U A145G C169G	0.0106
C82U A145G C169G U176A	0.0184
C82U A145G C169G U176C	0.0258
C82U A145G C169G U176G	0.00452
C82U A145G C169U	0.0143
C82U A145G C169U U176A	0.0137
C82U A145G C169U U176C	0.0131
C82U A145G C169U U176G	0.00391
C82U A145G U176A	0.353
C82U A145G U176C	0.44
C82U A145G U176G	0.125
C82U A145U	0.626
C82U A145U C150A	0.0658
C82U A145U C150A C169A	0.00771
C82U A145U C150A C169A U176A	0.0106
C82U A145U C150A C169A U176C	0.00744
C82U A145U C150A C169A U176G	0.00546
C82U A145U C150A C169G	0.00614
C82U A145U C150A C169G U176A	0.0104
C82U A145U C150A C169G U176C	0.00918
C82U A145U C150A C169G U176G	0.0051
C82U A145U C150A C169U	0.00825
C82U A145U C150A C169U U176A	0.0118

Variant	reverse-splicing fitness
C82U A145U C150A C169U U176C	0.0101
C82U A145U C150A C169U U176G	0.00535
C82U A145U C150A U176A	0.055
C82U A145U C150A U176C	0.0543
C82U A145U C150A U176G	0.0221
C82U A145U C150G	0.0715
C82U A145U C150G C169A	0.00864
C82U A145U C150G C169A U176A	0.0105
C82U A145U C150G C169A U176C	0.00964
C82U A145U C150G C169A U176G	0.00523
C82U A145U C150G C169G	0.00717
C82U A145U C150G C169G U176A	0.00745
C82U A145U C150G C169G U176C	0.00478
C82U A145U C150G C169G U176G	0.0049
C82U A145U C150G C169U	0.00842
C82U A145U C150G C169U U176A	0.00782
C82U A145U C150G C169U U176C	0.0114
C82U A145U C150G C169U U176G	0.00514
C82U A145U C150G U176A	0.0424
C82U A145U C150G U176C	0.0567
C82U A145U C150G U176G	0.0104
C82U A145U C150U	0.438
C82U A145U C150U C169A	0.00939
